Results from patent US20250277048A1 (Regeneron, published 2025).

T1: monkey CD40 extracellular domain expressed with a C-terminal myc-myc-hexahistidine tag (monkey)
T1 construct: also called mfCD40-MMH; REGN3097
T1 chain: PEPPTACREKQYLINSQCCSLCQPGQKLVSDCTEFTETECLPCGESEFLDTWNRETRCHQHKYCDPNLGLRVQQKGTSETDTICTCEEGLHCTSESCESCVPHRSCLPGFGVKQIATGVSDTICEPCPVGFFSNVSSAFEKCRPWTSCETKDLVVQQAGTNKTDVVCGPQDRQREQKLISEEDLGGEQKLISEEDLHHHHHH

T2: mouse CD40 extracellular domain expressed with a C-terminal myc-myc-hexahistidine tag (mouse)
T2 construct: also called mCD40-MMH; REGN3098
T2 chain: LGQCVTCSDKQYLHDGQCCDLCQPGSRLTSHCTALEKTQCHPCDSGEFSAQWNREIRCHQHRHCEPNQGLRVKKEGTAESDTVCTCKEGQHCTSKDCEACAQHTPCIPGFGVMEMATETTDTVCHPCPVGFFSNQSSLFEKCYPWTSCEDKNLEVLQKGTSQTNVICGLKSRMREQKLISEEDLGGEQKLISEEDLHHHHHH


Legend:
[1] = target: T3, human CD40 extracellular domain expressed with a C-terminal myc-myc-hexahistidine tag (human); test: SPR Biacore 4000, mAb captured, 25C
T3 construct: also called hCD40-MMH; hCD40-mmH
Protocol: (§1) The equilibrium dissociation constants (KD) for anti-CD40 bivalent and bispecific monoclonal antibodies (mAbs) were determined using a real-time surface plasmon resonance (SPR)-based Biacore 4000 biosensor. All binding studies were performed in 10 mM HEPES, 150 mM NaCl, 3 mM EDTA, and 0.05% v/v surfactant Tween-20, pH 7.4 (HBS-ET) running buffer at 25° C. and 37° C. The Biacore CM5 sensor surface was first derivatized by amine coupling with a monoclonal mouse anti-human Fc antibody (REGN2567) to capture anti-CD40 bivalent parental and anti-CD40×CD40 bispecific antibodies. Different concentrations of CD40 reagents, human CD40 extracellular domain expressed with a C-terminal myc-myc-hexahistidine tag (SEQ ID NO: 1114) (“hCD40-MMH”; REGN3094; SEQ ID NO: 53), monkey CD40 extracellular domain expressed with a C-terminal myc-myc-hexahistidine tag (SEQ ID NO: 1114) (“mfCD40-MMH”; REGN3097; SEQ ID NO: 54), and mouse CD40 extracellular domain expressed with a C-terminal myc-myc-hexahistidine tag (SEQ ID NO: 1114) (“mCD40-MMH”; REGN3098; SEQ ID NO: 55), at concentrations ranging from 3.7 nM to 100 nM or 3.3 nM to 90 nM in a series of 3-fold dilutions prepared in HBS-ET running buffer were injected at a flow rate of 30 μL/min for 4 minutes or 50 μL/min for 5 minutes. The dissociation of different CD40 reagents bound to anti-CD40 bivalent parental and anti-CD40×CD40 bispecific antibodies was monitored for 10 minutes in HBS-ET running buffer. At the end of each cycle, the anti-CD40 bivalent parental and anti-CD40×CD40 bispecific antibodies capture surface was regenerated using a 12 sec injection of 20 mM H₃PO₄.
(§2) The association rate (ka) and dissociation rate (kd) were determined by fitting the real-time binding sensorgrams to a 1:1 binding model with mass transport limitation using Scrubber 2.0c curve-fitting software. Binding dissociation equilibrium constant (KD) and dissociative half-life (t_{1/2}) were calculated from the kinetic rates as: KD(M)=kd/kₐ, and t_{1/2} (min)=[ln(2)/(60*kd)].

[2] = target: T1, monkey CD40 extracellular domain …; test: SPR Biacore 4000, mAb captured, 25C
Protocol: as §1, §2

[3] = target: T2, mouse CD40 extracellular domain …; test: SPR Biacore 4000, mAb captured, 25C
Protocol: as §1, §2

[4] = target: T4, human CD40 (hCD40) expressed on cells (human, UniProt P25942 21-277); test: cell-based or functional assay
T4 sequence (P25942 21-277): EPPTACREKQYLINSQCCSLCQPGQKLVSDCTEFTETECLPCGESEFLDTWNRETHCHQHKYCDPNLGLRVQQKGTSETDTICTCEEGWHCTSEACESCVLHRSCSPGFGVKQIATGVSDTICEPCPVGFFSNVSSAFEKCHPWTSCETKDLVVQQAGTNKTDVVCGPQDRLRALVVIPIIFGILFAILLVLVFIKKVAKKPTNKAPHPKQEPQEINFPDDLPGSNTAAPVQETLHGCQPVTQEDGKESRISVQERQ

[5] = target: T4, human CD40 (hCD40) expressed on cells; test: flow cytometry, HEK293/D9/hCD40 cells
Protocol: Cells were washed with 2% FBS (w/v) in 1×PBS (flow cytometry staining buffer) by centrifugation with benchtop Centrifuge 5810R (Eppendorf®, Hamburg, Germany). Cells were incubated for 30 minutes at 4° C. with serial dilutions of following antibodies ranging from 1.7 pM to 100 nM in flow cytometry staining buffer (1) anti-CD40×CD40 bispecific antibodies, or (2) parental anti-CD40 antibodies (bivalent antibodies comprising 2 fragment antigen-binding [Fab] arms identical to one of the two anti-CD40 Fab of bispecific anti-CD40×CD40 antibodies), or (3) anti-CD40×Irrelevant antibodies (bivalent antibodies that incorporate one Fab arm identical to one of anti-CD40 Fab of anti-CD40×CD40 antibodies and another Fab arm specific to an irrelevant antigen, i.e. birch pollen main allergen Bet v1), or (4) human IgG4 isotype control antibodies with Fc mutation. After washing, cell bound antibodies were detected with 2.5 μg/ml Allophycocyanin (APC)-conjugated goat anti-human IgG antibody specific for the Fcγ fragment (Jackson Immunoresearch, West Grove, PA) for 30 minutes at 4° C. Cells were washed and subsequently fixed with 50% solution of Cytofix™ Fixation Buffer (BD, Franklin Lakes, NJ) in flow cytometry staining buffer for 20 minutes at room temperature. Cells were washed and resuspended in flow cytometry staining buffer and stored at 4° C. for downstream flow cytometry analysis.
Acquisition of fluorescence signals were recorded on the ZE5 Cell Analyzer (Bio-Rad, Hercules, CA) according to the manufacturer's recommended procedure and flow cytometry data analysis was performed using the open-source R packages flowCore, flowStats, flowDensity, ggCyto, and flowAI. Multiplexed samples were deconvoluted and individual cell populations were identified based on their unique CellTrace™ fluorescence signature. APC Median Fluorescence intensity (MFI) was recorded to indicate the binding intensity of each antibody over a range of concentrations. Antibodies with MFI greater than 1500 at the highest tested concentration (100 nM) were classified as specific binders. In addition, direct binding signals (APC MFI) were analyzed as a function of the antibody concentration and data were fitted with a sigmoidal (four-parameter logistic) dose-response model using GraphPad Prism™ software.

[6] = target: T4, human CD40 (hCD40) expressed on cells; test: cell-based or functional assay; remark: listed apart in the source

Binder	100 nM Ag Bound [1]	Kd [1]	koff [1]	t1/2 [1]	100 nM Ag Bound [2]	Kd [2]	koff [2]	kon [2]	t1/2 [2]	100 nM Ag Bound [3]	IC50, 10 nM hCD40L, THP-1 NFkB-luc [4]	Max % activation, no ligand, THP-1 NFkB-luc [4]	Max % inhibition, 10 nM hCD40L, THP-1 NFkB-luc [4]	EC50 [5]	MFI at 100 nM [5]	IC50, 500 pM hCD40L, Ramos NFkB-luc [6]	Max % activation, no ligand, Ramos NFkB-luc [6]	Max % inhibition, 500 pM hCD40L, Ramos NFkB-luc [6]	kon [1]	also measured
21519P2 (antibody, human IgG4 S228P, kappa, V domains shown, parental bivalent anti-CD40 mAb; common light chain; also called H4sH21519P2) VH: QLQLQESGPGLVRPSETLSLTCSVSGASMNTNNYYWGWIRQPPGKGLEWIGSGYYNGNTYYNPSLKSRVTISVDTSKNQFSLKLNSVTAADTAVYYCARQTPPRIIGSPNIWGQGTMVTVSS VL: not shown	99 RU	8.82 nM	0.00339 s⁻¹	3.4 min	10.3 RU	205 nM	0.181 s⁻¹	886000 M⁻¹ s⁻¹	0.1 min	0.4 RU	0.276 nM	5%	99%	1.3 nM	20200 MFI	3.09e-11 M	13%	88%	–	binding result [3]: no binding (tested: 100 nM)
21520P2 (antibody, human IgG4 S228P, kappa, V domains shown, parental bivalent anti-CD40 mAb; common light chain; also called H4sH21520P2) VH: EVQLVESGGGLVQPGGSLRLSCAASGFTFGSYGMAWVRQAPGKGLEWVSAISGSGDYTNYADSVKRRFTISRDNSKNTLYLQMSSLRAEDTAVYYCAKEKTGTTGYLYSGMDVWGQGTTVTVSS VL: not shown	76.6 RU	25.1 nM	0.0223 s⁻¹	0.5 min	10.1 RU	67.7 nM	0.203 s⁻¹	3e+06 M⁻¹ s⁻¹	0.1 min	-0.5 RU	0.437 nM	1%	97%	0.82 nM	20700 MFI	–	49%	63%	885000 M⁻¹ s⁻¹	EC50, no ligand, Ramos NFkB-luc [6]: > 10 nM; IC50, 500 pM hCD40L, Ramos NFkB-luc (three highest concentrations excluded, hook effect) [6]: 8.06e-11 M
REGN16431 (bispecific antibody, human IgG4 S228P, kappa, D1 arm from 21519P2, D2 arm from 21520P2, common light chain; also called CD40xCD40 (21519 x 21520)) heavy 1: QLQLQESGPGLVRPSETLSLTCSVSGASMNTNNYYWGWIRQPPGKGLEWIGSGYYNGNTYYNPSLKSRVTISVDTSKNQFSLKLNSVTAADTAVYYCARQTPPRIIGSPNIWGQGTMVTVSSASTKGPSVFPLAPCSRSTSESTAALGCLVKDYFPEPVTVSWNSGALTSGVHTFPAVLQSSGLYSLSSVVTVPSSSLGTKTYTCNVDHKPSNTKVDKRVESKYGPPCPPCPAPPVAGPSVFLFPPKPKDTLMISRTPEVTCVVVDVSQEDPEVQFNWYVDGVEVHNAKTKPREEQFNSTYRVVSVLTVLHQDWLNGKEYKCKVSNKGLPSSIEKTISKAKGQPREPQVYTLPPSQEEMTKNQVSLTCLVKGFYPSDIAVEWESNGQPENNYKTTPPVLDSDGSFFLYSRLTVDKSRWQEGNVFSCSVMHEALHNHYTQKSLSLSLGK heavy 2: EVQLVESGGGLVQPGGSLRLSCAASGFTFGSYGMAWVRQAPGKGLEWVSAISGSGDYTNYADSVKRRFTISRDNSKNTLYLQMSSLRAEDTAVYYCAKEKTGTTGYLYSGMDVWGQGTTVTVSSASTKGPSVFPLAPCSRSTSESTAALGCLVKDYFPEPVTVSWNSGALTSGVHTFPAVLQSSGLYSLSSVVTVPSSSLGTKTYTCNVDHKPSNTKVDKRVESKYGPPCPPCPAPPVAGPSVFLFPPKPKDTLMISRTPEVTCVVVDVSQEDPEVQFNWYVDGVEVHNAKTKPREEQFNSTYRVVSVLTVLHQDWLNGKEYKCKVSNKGLPSSIEKTISKAKGQPREPQVYTLPPSQEEMTKNQVSLTCLVKGFYPSDIAVEWESNGQPENNYKTTPPVLDSDGSFFLYSRLTVDKSRWQEGNVFSCSVMHEALHNRFTQKSLSLSPGK light: not shown	61.2 RU	0.101 nM	0.000149 s⁻¹	77.5 min	–	–	–	–	–	–	0.287 nM	2%	98%	1.9 nM	29500 MFI	8.54e-11 M	6%	90%	1.47e+06 M⁻¹ s⁻¹	–
REGN16432 (bispecific antibody, human IgG4 S228P, kappa, D1 arm from 30027P2, D2 arm from 21520P2, common light chain; also called CD40xCD40 (30027 x 21520)) heavy 1: EVQLVESGGGLVQPGGSLRLSCAASGFTFSSYAMNWVRQAPGKGLEWVSIISGTIGKTYYADSVKGRFTISRDNSKNTLYLQMNSLRGEDTAVYYCAKDTERDITGSPFDYWGQGTLVTVSSASTKGPSVFPLAPCSRSTSESTAALGCLVKDYFPEPVTVSWNSGALTSGVHTFPAVLQSSGLYSLSSVVTVPSSSLGTKTYTCNVDHKPSNTKVDKRVESKYGPPCPPCPAPPVAGPSVFLFPPKPKDTLMISRTPEVTCVVVDVSQEDPEVQFNWYVDGVEVHNAKTKPREEQFNSTYRVVSVLTVLHQDWLNGKEYKCKVSNKGLPSSIEKTISKAKGQPREPQVYTLPPSQEEMTKNQVSLTCLVKGFYPSDIAVEWESNGQPENNYKTTPPVLDSDGSFFLYSRLTVDKSRWQEGNVFSCSVMHEALHNHYTQKSLSLSLGK heavy 2: EVQLVESGGGLVQPGGSLRLSCAASGFTFGSYGMAWVRQAPGKGLEWVSAISGSGDYTNYADSVKRRFTISRDNSKNTLYLQMSSLRAEDTAVYYCAKEKTGTTGYLYSGMDVWGQGTTVTVSSASTKGPSVFPLAPCSRSTSESTAALGCLVKDYFPEPVTVSWNSGALTSGVHTFPAVLQSSGLYSLSSVVTVPSSSLGTKTYTCNVDHKPSNTKVDKRVESKYGPPCPPCPAPPVAGPSVFLFPPKPKDTLMISRTPEVTCVVVDVSQEDPEVQFNWYVDGVEVHNAKTKPREEQFNSTYRVVSVLTVLHQDWLNGKEYKCKVSNKGLPSSIEKTISKAKGQPREPQVYTLPPSQEEMTKNQVSLTCLVKGFYPSDIAVEWESNGQPENNYKTTPPVLDSDGSFFLYSRLTVDKSRWQEGNVFSCSVMHEALHNRFTQKSLSLSPGK light: not shown	56.6 RU	0.163 nM	0.000125 s⁻¹	92.3 min	–	–	–	–	–	–	0.148 nM	6%	97%	1.5 nM	30300 MFI	4.92e-11 M	4%	94%	769000 M⁻¹ s⁻¹	–
